Sequences and labels used below:
T1: HOIP (466-695) (human, UniProt Q96EP0 466-695)
T1 construct: HOIP, human, residues 466-695 (HOIP-UBA together with HOIP 629-695); also called HOIP domain (residues 466-695)
T1 sequence (looked up): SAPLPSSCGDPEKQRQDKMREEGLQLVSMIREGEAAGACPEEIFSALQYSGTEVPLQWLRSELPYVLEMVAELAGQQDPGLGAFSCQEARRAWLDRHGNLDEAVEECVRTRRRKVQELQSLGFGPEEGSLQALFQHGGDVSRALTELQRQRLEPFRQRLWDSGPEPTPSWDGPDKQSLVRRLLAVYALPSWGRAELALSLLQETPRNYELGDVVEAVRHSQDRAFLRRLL

B1: HOIL-1L-UBL domain (residues 55-135) (domain or fragment, human, UniProt Q9BYM8-1 55-135, looked up)
chain: IRLWVSVEDAQMHTVTIWLTVRPDMTVASLKDMVFLDYGFPPVLQQWVIGQRLARDQETLHSHGVRQNGDSAYLYLLSARN
notes: HOIL-1L, human, UBL domain, residues 55-135; also called HOIL-UBL
B2: HOIP (629-695) (domain or fragment)
chain: PEPTPSWDGPDKQSLVRRLLAVYALPSWGRAELALSLLQETPRNYELGDVVEAVRHSQDRAFLRRLL

Experiment [1] deals with HOIP-UBA domain (residues 466-629) (human) (UniProt Q96EP0). The experiment is described as follows: SPR; Biacore T200; the HOIL-1L and SHARPIN constructs mixed at the same concentration and incubated at 16°C for 2 h before analysis against HOIP-UBA (466-630); who was immobilised is not stated. (In general: SPR reads the build-up and loss of mass on a sensor chip optically.)

The target in experiment [2] is B1. The experiment is described as follows: SPR; Biacore T200; HOIL-1L-UBL immobilised on the sensor chip, HOIP fragments flowed over.
Experiment [3] has as its target B1. The experiment can be described thus: ITC; MicroCal PEAQ-ITC; cell and syringe not stated. For orientation: In ITC the heat of successive injections is recorded.
The target in experiment [4] is T1, HOIP (466-695). The experiment can be described thus: SPR; Biacore T200; HOIL-1L-UBL immobilised on the sensor chip, HOIP fragments flowed over. The note with it: both partners purified.
Experiment [5] deals with T1, HOIP (466-695). The experiment is described as follows: ITC; MicroCal PEAQ-ITC; cell and syringe not stated. Conditions: both partners purified.

A word on the Kd: it is a measure of binding affinity in units of concentration. In experiment [1], “HOIL-1L-UBL and SHARPIN-UBL without the LTM domain, mixed before SPR (from UniProt Q9BYM8-1 55-135; Q9H0F6 206-309) (complex)” showed a Kd of 72.1 nM.

“HOIL-1L (5-135) and SHARPIN (127-309), containing the LTM domain, mixed before SPR (from UniProt Q9BYM8-1 5-135; Q9H0F6 127-309) (complex)” returned a Kd in experiment [1] of 496 nM.

“HOIP-UBA domain (residues 466-629) (from UniProt Q96EP0 466-629) (domain or fragment)”: the Kd in experiment [2] came out at 543 nM; in experiment [3], 4.3 µM. As to B1, the values for the Kd in experiment [4] and in experiment [5] were 359 nM and 800 ± 200 nM, respectively. B2 returned a Kd in experiment [2] (both partners purified) of 989 nM.

The record behind these values is PMC11322871, “AlphaFold2 assists in providing novel mechanistic insights into the interactions among the LUBAC subunits” (Acta Biochimica et Biophysica Sinica, 2024).
